These are literature values, as cited in publication PMC8495453.

This series has as its target Galectin-3 (Homo sapiens) (UniProt P17931).

Where only a bound is given, the exact number is not on record here.

LAMP1 29-382, sequence (P11279 29-382): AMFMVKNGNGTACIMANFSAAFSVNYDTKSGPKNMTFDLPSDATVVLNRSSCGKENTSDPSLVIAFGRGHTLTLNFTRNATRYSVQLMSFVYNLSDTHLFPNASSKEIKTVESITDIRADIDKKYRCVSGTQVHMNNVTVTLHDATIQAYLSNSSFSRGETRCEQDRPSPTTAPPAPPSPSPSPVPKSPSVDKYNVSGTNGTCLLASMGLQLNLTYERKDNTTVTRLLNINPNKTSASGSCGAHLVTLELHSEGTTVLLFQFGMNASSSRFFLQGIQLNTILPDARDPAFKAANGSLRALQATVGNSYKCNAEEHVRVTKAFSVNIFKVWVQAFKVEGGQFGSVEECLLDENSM
Galectin-3 (Homo sapiens), sequence (P17931 2-250): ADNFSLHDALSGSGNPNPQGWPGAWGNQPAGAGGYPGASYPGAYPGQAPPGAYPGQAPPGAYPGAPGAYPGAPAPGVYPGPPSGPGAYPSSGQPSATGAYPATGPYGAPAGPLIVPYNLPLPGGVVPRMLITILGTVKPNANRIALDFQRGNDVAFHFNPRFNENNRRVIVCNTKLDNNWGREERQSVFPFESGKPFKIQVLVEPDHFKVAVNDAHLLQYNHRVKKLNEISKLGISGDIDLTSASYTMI

On to LAMP1 29-382 (from UniProt P11279), for which the Kd (usually the equilibrium constant for the complex coming apart) is less than 25 nM.
